± gives the standard deviation of the averaged measurements.
What was measured:
[1] = system: hTERT-HMEC; assay: percentage of EdU-negative (G0-arrested) nuclei per well, 72 h; higher = more G0 arrest; conditions: reference: sequence is the full UniProt precursor, the tested protein was the secreted form or ectodomain
[2] = system: MCF7; assay: as above; conditions: reference: sequence is the full UniProt precursor, the tested protein was the secreted form or ectodomain
[3] = protein concentration 0.0357143 µM
[4] = protein concentration 0.357143 µM
[5] = protein concentration 0.03125 µM
[6] = protein concentration 0.3125 µM
[7] = protein concentration 0.0257143 µM
[8] = protein concentration 0.257143 µM
[9] = protein concentration 0.026505 µM
[10] = protein concentration 0.26505 µM
[11] = protein concentration 0.02859 µM
[12] = protein concentration 0.2859 µM
[13] = protein concentration 0.01825 µM
[14] = protein concentration 0.1825 µM
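Further: secreted proteins added to cultured cells, EdU pulse at the end, nuclei found by Hoechst imaging, EdU status from nuclear versus surrounding ring intensity ratio, PBS as neutral control.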

MKRVLVLLLAVAFGHALERGRDYEKNKVCKEFSHLGKEDFTSLSLVLYSRKFPSGTFEQVSQLVKEVVSLTEACCAEGADPDCYDTRTSALSAKSCESNSPFPVHPGTAECCTKEGLERKLCMAALKHQPQEFPTYVEPTNDEICEAFRKDPKEYANQFMWEYSTNYGQAPLSLLVSYTKSYLSMVGSCCTSASPTVCFLKERLQLKHLSLLTTLSNRVCSQYAAYGEKKSRLSNLIKLAQKVPTADLEDVLPLAEDITNILSKCCESASEDCMAKELPEHTVKLCDNLSTKNSKFEDCCQEKTAMDVFVCTYFMPAAQLPELPDVELPTNKDVCDPGNTKVMDKYTFELSRRTHLPEVFLSKVLEPTLKSLGECCDVEDSTTCFNAKGPLLKKELSSFIDKGQELCADYSENTFTEYKKKLAERLKAKLPDATPTELAKLVNKHSDFASNCCSINSPPLYCDSEIDAELKNIL
percentage of EdU-negative [1, 3]: 6.02 ± 1.8%
percentage of EdU-negative [1, 4]: 16.1 ± 0.49%
percentage of EdU-negative [2, 3]: 25.9 ± 0.66%
percentage of EdU-negative [2, 4]: 27.2 ± 1.1%

MKSFLLVVNALALTLPFLAVEVQNQKQPACHENDERPFYQKTAPYVPMYYVPNSYPYYGTNLYQRRPAIAINNPYVPRTYYANPAVVRPHAQIPQRQYLPNSHPPTVVRRPNLHPSFIAIPPKKIQDKIIIPTINTIATVEPTPAPATEPTVDSVVTPEAFSESIITSTPETTTVAVTPPTA
percentage of EdU-negative ([1]; protein concentration 0.01 µM): 5.78 ± 0.51%
percentage of EdU-negative ([1]; protein concentration 0.1 µM): 5.65 ± 0.83%
percentage of EdU-negative ([2]; protein concentration 0.01 µM): 24.6 ± 1.5%
percentage of EdU-negative ([2]; protein concentration 0.1 µM): 25.6 ± 1.9%

MKSGLWYFFLFCLRIKVLTGEINGSANYEMFIFHNGGVQILCKYPDIVQQFKMQLLKGGQILCDLTKTKGSGNTVSIKSLKFCHSQLSNNSVSFFLYNLDHSHANYYFCNLSIFDPPPFKVTLTGGYLHIYESQLCCQLKFWLPIGCAAFVVVCILGCILICWLTKKKYSSSVHDPNGEYMFMRAVNTAKKSRLTDVTL [Q9Y6W8]
percentage of EdU-negative [1, 5]: 4.29 ± 0.34%
percentage of EdU-negative [1, 6]: 4.32 ± 0.26%
percentage of EdU-negative [2, 5]: 25.2 ± 1.7%
percentage of EdU-negative [2, 6]: 25.9 ± 0.78%

MKSLTWILGLWALAACFTPGESQRGPRGPYPPGPLAPPPPPCFPFGTGFVPPPHPPPYGPGRFPPPLSPPYGPGRIPPSPPPPYGPGRIQSHSLPPPYGPGYPQPPSQPRPYPPGPPFFPVNSPTDPALPTPAP
percentage of EdU-negative [1, 7]: 5.63 ± 1.3%
percentage of EdU-negative [1, 8]: 7.43 ± 0.82%
percentage of EdU-negative [2, 7]: 22.6 ± 1%
percentage of EdU-negative [2, 8]: 26.45 ± 0.12%

MKSLTWILGLWALAACFTPGESQRGPRGPYPPGPLAPPQPFGPGFVPPPPPPPYGPGRIPPPPPAPYGPGIFPPPPPQP
percentage of EdU-negative [1, 7]: 5.18 ± 0.72%
percentage of EdU-negative [1, 8]: 6.25 ± 0.39%
percentage of EdU-negative [2, 7]: 26.1 ± 0.69%
percentage of EdU-negative [2, 8]: 29.6 ± 2.1%

MKSLVLLLCLAQLWGCHSAPHGPGLIYRQPNCDDPETEEAALVAIDYINQNLPWGYKHTLNQIDEVKVWPQQPSGELFEIEIDTLETTCHVLDPTPVARCSVRQLKEHAVEGDCDFQLLKLDGKFSVVYAKCDSSPDSAEDVRKVCQDCPLLAPLNDTRVVHAAKAALAAFNAQNNGSNFQLEEISRAQLVPLPPSTYVEFTVSGTDCVAKEATEAAKCNLLAEKQYGFCKATLSEKLGGAEVAVTCMVFQTQPVSSQPQPEGANEAVPTPVVDPDAPPSPPLGAPGLPPAGSPPDSHVLLAAPPGHQLHRAHYDLRHTFMGVVSLGSPSGEVSHPRKTRTVVQPSVGAAAGPVVPPCPGRIRHFKV
percentage of EdU-negative [1, 9]: 4.56 ± 0.2%
percentage of EdU-negative [1, 10]: 6.7 ± 0.16%
percentage of EdU-negative [2, 9]: 26.1 ± 1.4%
percentage of EdU-negative [2, 10]: 26.2 ± 2.4%

MKSVLLLTTLLVPAHLVAAWSNNYAVDCPQHCDSSECKSSPRCKRTVLDDCGCCRVCAAGRGETCYRTVSGMDGMKCGPGLRCQPSNGEDPFGEEFGICKDCPYGTFGMDCRETCNCQSGICDRGTGKCLKFPFFQYSVTKSSNRFVSLTEHDMASGDGNIVREEVVKENAAGSPVMRKWLNPR [Q9NQ30]
percentage of EdU-negative [1, 11]: 4.84 ± 1.4%
percentage of EdU-negative [1, 12]: 5.91 ± 0.64%
percentage of EdU-negative [2, 11]: 24.2 ± 1%
percentage of EdU-negative [2, 12]: 25.25 ± 0.057%

MKTALILLSILGMACAFSMKNLHRRVKIEDSEENGVFKYRPRYYLYKHAYFYPHLKRFPVQGSSDSSEENGDDSSEEEEEEEETSNEGENNEESNEDEDSEAENTTLSATTLGYGEDATPGTGYTGLAAIQLPKKAGDITNKATKEKESDEEEEEEEEGNENEESEAEVDENEQGINGTSTNSTEAENGNGSSGGDNGEEGEEESVTGANAEDTTETGRQGKGTSKTTTSPNGGFEPTTPPQVYRTTSPPFGKTTTVEYEGEYEYTGANEYDNGYEIYESENGEPRGDNYRAYEDEYSYFKGQGYDGYDGQNYYHHQ
percentage of EdU-negative [1, 13]: 5.184 ± 0.032%
percentage of EdU-negative [1, 14]: 5.29 ± 1.4%
percentage of EdU-negative [2, 13]: 21.2 ± 2.7%
percentage of EdU-negative [2, 14]: 24.2 ± 2.1%
